Measurements from US12180286B2, “Anti-peripheral lymph node addressin antibodies and uses thereof” (The Brigham and Women's Hospital, Inc., priority 2019, dated 2024).

Columns and labels:
[1] = test system: Panc02 pancreas tumor cells; experiment: Panc02 pancreas tumor model, survival; format: in vivo, mice; conditions: 160 ng every other day intraperitoneally for 20 days, starting 4 hours post-implantation
Protocol: Mice were anesthetized with isoflurane, and Panc02 pancreas tumor cells were gently injected in pancreas of mice. Two million cells (2×10^6 cells) were injected per mouse for Panc02 tumor model. Starting 4 hours post-implantation, 160 ng of free Taxol or MHA112-taxol were administered every other day intraperitoneally for 20 days. Survival was monitored every day.
(§1) Glutaric anhydride (100 mg, Sigma-Aldrich) and taxol (33 mg, LC laboratories) were prepared in a 4 mL vial dried under high vacuum for 24 hours and dissolved in 1 mL of pyridine. The solution was stirred at room temperature under Ar atmosphere for 2 hours. The reaction was quenched by removal of solvent under high vacuum for 2 hours. 2′-Glutaryl taxol was purified by a reversed phase HPLC (Phenomenex Luna 5 μm C18 250×10.0 mm, flow rate 2 mL/min, UV 250 nm detection) with a gradient solvent system (15% to 75% ACN/H2O with 0.1% formic acid for 40 minutes). 2′-glutaryl taxol (0.2 mg) dissolved in DMSO (Thermo Scientific Fisher) was activated with 1-ethyl-3-(3-dimethylaminopropyl)carbodiimide hydrochloride (EDC, 0.4 mg, Sigma-Aldrich) and Sulfo-NHS (N-hydroxysulfosuccinimide) (1.1 mg, Thermo Scientific Fisher) for 15 minutes at room temperature in MES buffer (pH 6.0, Thermo Scientific Fisher) (final solution; ˜1 mL in 10% DMSO). The EDC was quenched by 2-mercaptoethanol (1.4 μL, Sigma-Aldrich) for 10 min. […]

[2] = test system: 4T1 tumor-draining lymph nodes (TDLNs); experiment: Immunostaining of 4T1 tumor-draining lymph nodes (TDLNs); format: in vivo, mice; conditions: 4T1 TDLNs, fluorescence micrographs
Text: Thus, the effect of the LN delivery of MHA112 in the tumor population in the LN was investigated. The extent of MHA112's ability to restore the overall structure of LN was also investigated. […] 4T1 tumor-draining lymph nodes (TDLNs) were cut by cryo-sectioning and stained with anti-HEV (sc-19602, SCBT), anti-LYVE1 (ab14917, Abcam), anti-Pan-Cytokeratin (C2931, Sigma), anti-collagen I (ab34710, Abcam), anti-collagen IV (ab6586, Abcam), and anti-laminin (ab11575, Abcam). […] The stained tissue sections were visualized using an EVOS™ FL Auto 2 Imaging System. […] The structure changes of TDLNs was also examined.

4T1 breast tumor cells = experiment: 4T1 breast tumor growth model; format: in vivo, BALB/c-WT mice; conditions: equal to 160 ng free taxol every two days; n=12
Protocol: Mice were anesthetized with isoflurane and underwent subcutaneous injection with 4T1 breast tumor cells in the mammary glands (1×10^5 cells per mouse). Starting at 9 days post-implantation, free Taxol or MHA112-Taxol were administered every other day intraperitoneally for 24 days. Tumor growth was monitored two times per week by digital caliper.

4T1 tumor cell lines = experiment: 4T1 breast tumor liver portal vein metastasis model, survival; format: in vivo, mouse; conditions: 160 ng every other day intraperitoneally for 20 days, starting 4 hours post-implantation
Protocol: To investigate the effect of MHA112-Taxol on tumor metastasis, 4T1 tumor cell lines were gently injected into the portal vein (1×10^4 cells per mouse) of mouse liver. Starting 4 hours post-implantation, 160 ng of free Taxol or MHA112-taxol were administered every other day intraperitoneally for 20 days. Survival was monitored every day.
as §1

[3] = test system: high endothelial venules (HEVs) of human tonsil; experiment: Immunofluorescence staining of HEVs in human tonsil section; format: binding; conditions: hybridoma supernatant
Text: (§2) Two of GlcNAc6ST1/2/4 triple knock-out (KO) mice, which lack the peripheral lymph node vascular addressin (PNAd), were immunized with Chinese hamster ovary (CHO) cell lines expressing CD34 decorated with sialyl Lewis^X (sLeX)-type glycans. MHA112 single hybridoma clone was identified by HEV immunofluorescence staining. The supernatant of MHA112 hybridoma culture was collected and used to stain mice lymph nodes (LNs) and human tonsil section.
(§3) Two of GlcNAc6ST1/2/4 triple KO mice, which lack the PNAd, were immunized with CHO cell lines expressing CD34 decorated with sLeX-type glycans. After the 3rd immunization, mice were sacrificed for hybridoma. Around 500 single clones were screened by HEV staining. Monoclonal antibody MHA112 against mice and human HEV was identified.
(§4) Fresh LNs were embedded in tissue-freezing medium. Cryostat sections (8 μm thick) were cut for imaging by fluorescence confocal microscopy. MHA112 was used for tissue staining as primary antibody. Alexa Fluor 488-conjugated anti-mouse IgM was used as secondary antibody. DAPI was used to stain the cell nuclei.

[4] = test system: CHO cells expressing PNAd (CHO-PNAd); experiment: Cell-based ELISA binding affinity
Protocol: To compare the affinity of MHA112 with MECA79, cell-based ELISA was performed. CHO cells expressing PNAd (CHO-PNAd) (2×10^4) were coated onto 96-well plates and incubated overnight at 37° C. After five washes with phosphate buffered saline (PBS), the plates were fixed with 1% paraformaldehyde (PFA) and blocked with 3% bovine serum albumin (BSA). MECA79 and MHA112 were serially diluted from 1 ng/ml to 300 μg/ml. After five washes in PBST, horseradish peroxidase-(HRP-)conjugated goat anti-mouse and anti-rat secondary antibodies were added at a 1:10,000 dilution and incubated for 1 hour at room temperature. Binding was detected with the addition of TMB (3,3′,5,5′-tetramethylbenzidine) substrate, and the reaction was stopped by adding TMB Stop Solution (N600, Thermo Scientific). Absorbance signals were read at 450 nm.

T cells homing to LNs = experiment: Blocking of labeled T cell homing to LNs (flow cytometry); format: in vivo, C57BL/6 mice; conditions: 200 μg i.p. 2 hours before T cell injection, 19 hours after transfer
Protocol: To test whether MHA112 mAb can block T cells homing to LNs in vivo, T cells were labeled with fluorescein isothiocyanate (FITC) florescence dye and transferred into naïve mice, and their distribution assessed 19 hours later. MHA112 (anti-HEVs) reduced the number of transferred T cells that entered Axillary (Axi), Inguinal (Ing) and Brachial (Bra) LN by over 25% (FIG. 4). […] Labeled T cells that entered spleen were not changed in three groups (FIG. 4).
Spleens were harvested from three C57BL/6 mice. Single cell suspensions were prepared, and cells were positively enriched for T cells with MACS reagents and columns (Miltenyi Biotech, Bergisch Gladbach, Germany) according to the manufacturer's instructions. For injection, T cells were labeled with CellTracker Green (Thermo Fisher) and resuspended in sterile saline, and 5 million T cells were injected in 100 μl each mouse. Blocking antibodies MHA112 and MECA79 were administered intraperitoneally (i.p.) at 200 μg in 200 μl per mouse 2 hours before T cell injection. 19 hours after transfer, mice were euthanized and LNs were processed for flow cytometry.

[5] = test system: high endothelial venules (HEVs) of mice lymph nodes (LNs); experiment: Immunofluorescence staining of HEVs in mice lymph node sections; format: binding; conditions: hybridoma supernatant
Text: as §2, §3, §4

Molecule | median survival time (MST) [1] [days] | expansion of HEVs and lymphatics (LYVE1) in TDLNs [2] | growth of 4T1 mouse breast tumors versus control group treated with PBS (4T1 breast tumor cells) | median survival time (MST) (4T1 tumor cell lines) [days] | staining of HEVs structure [3] | binding affinity higher than MECA79 [4] [%] | Kd ([4]; fitting curves, absorbance 450 nm) [nM] | reduction of number of transferred T cells that entered Axillary, Inguinal and Brachial LN (T cells homing to LNs) | reduction of number of T cells that entered mesenteric LNs (T cells homing to LNs; of PBS controls) | staining of HEVs structure [5]
CC(=O)O[C@H]1C(=O)[C@@]2(C)[C@H]([C@H](OC(=O)c3ccccc3)[C@]3(O)C[C@H](OC(=O)[C@H](O)[C@@H](NC(=O)c4ccccc4)c4ccccc4)C(C)=C1C3(C)C)[C@]1(OC(C)=O)CO[C@@H]1C[C@@H]2O [free Taxol, taxol] | 32 | expanded | significantly slower growth | 37 |  |  |  |  |  | 
MHA112: anti-PNAd monoclonal antibody, mouse IgM, VH SEQ ID NO:2 and VL SEQ ID NO:7 (antibody, V domains shown, mouse IgM constant regions; MHA112 Heavy chain; MHA112 Light chain) VH: QVQLKESGPGLVAPSQSLSITCTVSGFSLTSYGVDWVRQPPGKGLEWLGVIWGGGSTNYNSALMSRLSISKDNSKSQVFLKMNSLQTDDTAMYYCAKHSKGGYFDVWGTGTTVTVSS VL: EIVLTQSPAITAASLGQKVTITCSASSSVSYMHWYQQKSGTSPKPWIYEISKLASGVPARFSGSGSGTSYSLTISSMEAEDAAIYYCQQWNYPLITFGAGTKLELK |  |  |  |  | stained | 30 | 0.97 | over 25% | around 12% | stained
